Laboratory results from US20240141045A1 (PRECIGEN, published 2024).

T1: TGF-β3 (UniProt P10600 301-412)
T1 sequence (looked up): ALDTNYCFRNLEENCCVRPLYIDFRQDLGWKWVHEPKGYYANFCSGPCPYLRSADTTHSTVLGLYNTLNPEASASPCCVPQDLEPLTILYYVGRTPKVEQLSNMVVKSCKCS


What was measured:
[1] = biological target: T2, PD-1 Fc fusion protein (UniProt Q15116 25-167, limits assumed); assay: SPR (Biacore 3000), PD-1 Fc immobilised on CM5 chip, fusion protein injected
T2 construct: Antigen immobilised on the CM5 chip in all PD-1 SPR assays; also called PD-1 fused to human Fc region; PD-1-Fc antigen; not shown: human Fc region
Method: Surface plasma resonance (SPR) analysis was performed using Biacore3000, CM5 chip, an amine-coupling kit, 10×HBS-P running buffer and Glycine for regeneration (GE Healthcare). […] Dissociation was allowed to proceed followed by a pulse of 10 mM Glycine (pH 1.5) for regeneration of the chip surface.

[2] = biological target: T3, TGF-β1 (UniProt P01137 279-390); assay: cell-based or functional assay
[3] = biological target: T4, PD-1 (programmed cell death protein 1), on cells (UniProt Q15116 25-288, limits assumed); assay: cell-based or functional assay
[4] = biological target: T1, TGF-β3; assay: cell-based or functional assay
[5] = biological target: T4, PD-1 (programmed cell death protein 1), …; assay: cell-based or functional assay; remark: listed apart in the source
[6] = biological target: T2, PD-1 Fc fusion protein; assay: SPR (Biacore 3000), recombinant PD-1 Fc immobilised on CM5 chip, fusion protein injected
Method: Surface plasma resonance (SPR) analysis was performed using Biacore3000, CM5 chip, an amine-coupling kit, 10×HBS-P running buffer and Glycine for. […] Dissociation was allowed to proceed followed by regeneration of the chip surface.

[7] = biological target: T2, PD-1 Fc fusion protein; assay: SPR (Biacore), PD1-Fc immobilised on CM5, 1:1 Langmuir model with mass transfer
Method: PD1-Fc antigen and reference antigen was immobilized on Biacore CM5 surface. […] Kinetics data was evaluated for 1:1 model: Langmuir with mass transfer.

[8] = biological target: T3, TGF-β1; assay: cell-based or functional assay; remark: listed apart in the source
[9] = biological target: T3, TGF-β1; assay: cell-based or functional assay; remark: listed apart in the source

T2 sequence (Q15116 25-167 limits assumed): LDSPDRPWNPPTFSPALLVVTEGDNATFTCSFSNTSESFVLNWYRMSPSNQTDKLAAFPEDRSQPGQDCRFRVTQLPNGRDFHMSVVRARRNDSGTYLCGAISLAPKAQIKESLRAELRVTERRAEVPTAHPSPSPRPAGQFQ
T3 sequence (P01137 279-390 limits assumed): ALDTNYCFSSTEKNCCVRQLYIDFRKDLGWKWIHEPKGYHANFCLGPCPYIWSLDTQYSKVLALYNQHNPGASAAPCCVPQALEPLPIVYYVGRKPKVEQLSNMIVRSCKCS
T4 sequence (Q15116 25-288 limits assumed): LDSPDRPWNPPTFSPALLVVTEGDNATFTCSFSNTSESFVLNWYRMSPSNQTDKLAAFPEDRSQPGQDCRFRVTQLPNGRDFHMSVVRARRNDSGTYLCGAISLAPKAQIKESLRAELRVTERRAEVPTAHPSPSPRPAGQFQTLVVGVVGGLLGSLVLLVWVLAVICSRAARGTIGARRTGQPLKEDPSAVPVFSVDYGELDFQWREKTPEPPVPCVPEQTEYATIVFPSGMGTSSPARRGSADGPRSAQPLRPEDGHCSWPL

Row | Kd [1] | Kd [7] | IC50, inhibition of TGF-β1 induced reporter gene activity (HEK-Blue TGF-β cells, SEAP) [9] | Binder | further results
1 | 0.00764 nM | – | – | Anti-PD1(VH6-VL5) IgG1-TGFβRII (antibody, not shown: light-chain constant region (not tied to the IgG1 format); copies: 2 + 2 + 2) VH: QVQLVESGGGVVQPGRSLRLDCKASGITFSNSGMHWVRQAPGKGLEWVAVIWYDGSKRYYADSVKGRFTISRDNSKNTLFLQMNSLRAEDTAVYYCATNDDYWGQGTLVTVSS VL: EIVLTQSPATLSLSPGERATLSCRASQSVSSYLAWYQQKPGQAPRLLIYDASNRATGIPARFSGSGSGTDFTLTISSLEPEDFAVYYCQQSSNWPRTFGQGTKVEIK GGGGSGGGGSIPPHVQKSVNNDMIVTDNNGAVKFPQLCKFCDVRFSTCDNQKSCMSNCSITSICEKPQEVCVAVWRKNDENITLETVCHDPKLPYHDFILEDAASPKCIMKEKKKPGETFFMCSCSSDECNDNIIFSEEYNTSNPD | IC50; neutralisation of TGF-β1 signalling, HEK-Blue TGF-β reporter cells (SEAP, absorbance 620 nM) [2]: 0.0127 nM; IC50; PD-1/PD-L1 blockade bioassay (PD-1 effector cells with PD-L1 aAPC/CHO-K1 cells, luciferase RLU) [3]: 9.5 nM; IC50; neutralisation of TGF-β3 signalling, HEK-Blue TGF-β reporter cells (SEAP, absorbance 620 nM) [4]: 0.0053 nM
2 | – | – | – | Anti-PD1 (VH6-VL5) IgG1-ADA2 (antibody, also called anti-PD1 (VH6/VL5) hIgG1-ADA2; not shown: IgG1 (hIgG1) heavy chain constant region; light chain constant region) heavy (part 1 of 2): QVQLVESGGGVVQPGRSLRLDCKASGITFSNSGMHWVRQAPGKGLEWVAVIWYDGSKRYYADSVKGRFTISRDNSKNTLFLQMNSLRAEDTAVYYCATNDDYWGQGTLVTVSS heavy (part 2 of 2): GGGGSGGGGSSIDETRAHLLLKEKMMRLGGRLVLNTKEELANERLMTLKIAEMKEAMRTLIFPPSMHFFQAKHLIERSQVFNILRMMPKGAALHLHDIGIVTMDWLVRNVTYRPHCHICFTPRGIMQFRFAHPTPRPSEKCSKWILLEDYRKRVQNVTEFDDSLLRNFTLVTQHPEVIYTNQNVVWSKFETIFFTISGLIHYAPVFRDYVFRSMQEFYEDNVLYMEIRARLLPVYELSGEHHDEEWSVKTYQEVAQKFVETHPEFIGIKIIYSDHRSKDVAVIAESIRMAMGLRIKFPTVVAGFDLVGHEDTGHSLHDYKEALMIPAKDGVKLPYFFHAGETDWQGTSIDRNILDALMLNTTRIGHGFALSKHPAVRTYSWKKDIPIEVCPISNQVLKLVSDLRNHPVATLMATGHPMVISSDDPAMFGAKGLSYDFYEVFMGIGGMKADLRTLKQLAMNSIKYSTLLESEKNTFMEIWKKRWDKFIADVATK light: EIVLTQSPATLSLSPGERATLSCRASQSVSSYLAWYQQKPGQAPRLLIYDASNRATGIPARFSGSGSGTDFTLTISSLEPEDFAVYYCQQSSNWPRTFGQGTKVEIK | EC50 (read off the curve); PD-1/PD-L1 blockade reporter bioassay (luciferase RLU) [5]: ~0.6 µg/mL; Kd [6]: 0.000309 nM
3 | 19.7 nM | – | – | Anti-PD1(VH6-VL5) scFv-TGFβRII (scFv) chain 1: QVQLVESGGGVVQPGRSLRLDCKASGITFSNSGMHWVRQAPGKGLEWVAVIWYDGSKRYYADSVKGRFTISRDNSKNTLFLQMNSLRAEDTAVYYCATNDDYWGQGTLVTVSS chain 2: EIVLTQSPATLSLSPGERATLSCRASQSVSSYLAWYQQKPGQAPRLLIYDASNRATGIPARFSGSGSGTDFTLTISSLEPEDFAVYYCQQSSNWPRTFGQGTKVEIK chain 3: GGGGSGGGGSIPPHVQKSVNNDMIVTDNNGAVKFPQLCKFCDVRFSTCDNQKSCMSNCSITSICEKPQEVCVAVWRKNDENITLETVCHDPKLPYHDFILEDAASPKCIMKEKKKPGETFFMCSCSSDECNDNIIFSEEYNTSNPD | –
4 | 7.77 nM | – | – | Anti-PD1(VH7-VL6) scFv-TGFβRII (scFv) chain 1: QVQLVQSGVEVKKPGASVKVSCKASGYTFTNYYMYWVRQAPGQGLEWMGGINPSNGGTNFNEKFKNRVTLTTDSSTTTAYMELKSLQFDDTAVYYCARRDYRFDMGFDYWGQGTTVTVSS chain 2: EIVLTQSPATLSLSPGERATLSCRASKGVSTSGYSYLHWYQQKPGQAPRLLIYLASYLESGVPARFSGSGSGTDFTLTISSLEPEDFAVYYCQHSRDLPLTFGGGTKVEIK chain 3: GGGGSGGGGSIPPHVQKSVNNDMIVTDNNGAVKFPQLCKFCDVRFSTCDNQKSCMSNCSITSICEKPQEVCVAVWRKNDENITLETVCHDPKLPYHDFILEDAASPKCIMKEKKKPGETFFMCSCSSDECNDNIIFSEEYNTSNPD | –
5 | – | 0.0141 nM | – | Anti-PD1 (nVL1-nVH3).IgG4 (S108P) (antibody, V domains shown) VH: QVQLVESGGGVVQPGRSLRLDCKASGITFSNSGMHWVRQAPGKGLEWVAVIWYDGSKRYYADSVKGRFTISRDNSKNTLFLQMNSLRAEDTAVYYCATNNDYWGQGTLVTVSS VL: EIVMTQSPATLSLSPGERATLSCRASQSVSSYLAWYQQKPGQAPRLLIYDASNRATGIPARFSGSGSGTDFTLTISSLEPEDFAVYYCQQYNNWPRTFGQGTKVEIK | –
6 | – | 0.0148 nM | – | Anti-PD1 (nVL1-nVH3).IgG4 (antibody, V domains shown, IgG4) VH: QVQLVESGGGVVQPGRSLRLDCKASGITFSNSGMHWVRQAPGKGLEWVAVIWYDGSKRYYADSVKGRFTISRDNSKNTLFLQMNSLRAEDTAVYYCATNNDYWGQGTLVTVSS VL: EIVMTQSPATLSLSPGERATLSCRASQSVSSYLAWYQQKPGQAPRLLIYDASNRATGIPARFSGSGSGTDFTLTISSLEPEDFAVYYCQQYNNWPRTFGQGTKVEIK | –
7 | – | – | – | Anti-PD1 (VL5-VH6).IgG4-Linker10-TGFbRII (antibody) heavy: QVQLVESGGGVVQPGRSLRLDCKASGITFSNSGMHWVRQAPGKGLEWVAVIWYDGSKRYYADSVKGRFTISRDNSKNTLFLQMNSLRAEDTAVYYCATNDDYWGQGTLVTVSSASTKGPSVFPLAPCSRSTSESTAALGCLVKDYFPEPVTVSWNSGALTSGVHTFPAVLQSSGLYSLSSVVTVPSSSLGTKTYTCNVDHKPSNTKVDKRVESKYGPPCPSCPAPEFLGGPSVFLFPPKPKDTLMISRTPEVTCVVVDVSQEDPEVQFNWYVDGVEVHNAKTKPREEQFNSTYRVVSVLTVLHQDWLNGKEYKCKVSNKGLPSSIEKTISKAKGQPREPQVYTLPPSQEEMTKNQVSLTCLVKGFYPSDIAVEWESNGQPENNYKTTPPVLDSDGSFFLYSRLTVDKSRWQEGNVFSCSVMHEALHNHYTQKSLSLSPGKDPGVLEREDVPTTSYPNPGSIPPHVQKSVNNDMIVTDNNGAVKFPQLCKFCDVRFSTCDNQKSCMSNCSITSICEKPQEVCVAVWRKNDENITLETVCHDPKLPYHDFILEDAASPKCIMKEKKKPGETFFMCSCSSDECNDNIIFSEEYNTSNPD light: not shown | IC50, TGF-β1 neutralization activity (HEK-Blue TGF-β reporter cells) [8]: 0.0019 nM
8 | – | 0.0277 nM | 0.0107 nM | Anti-PD1 (nVL1-nVH3).IgG4-TGFbRII (antibody) heavy: QVQLVESGGGVVQPGRSLRLDCKASGITFSNSGMHWVRQAPGKGLEWVAVIWYDGSKRYYADSVKGRFTISRDNSKNTLFLQMNSLRAEDTAVYYCATNNDYWGQGTLVTVSSASTKGPSVFPLAPCSRSTSESTAALGCLVKDYFPEPVTVSWNSGALTSGVHTFPAVLQSSGLYSLSSVVTVPSSSLGTKTYTCNVDHKPSNTKVDKRVESKYGPPCPSCPAPEFLGGPSVFLFPPKPKDTLMISRTPEVTCVVVDVSQEDPEVQFNWYVDGVEVHNAKTKPREEQFNSTYRVVSVLTVLHQDWLNGKEYKCKVSNKGLPSSIEKTISKAKGQPREPQVYTLPPSQEEMTKNQVSLTCLVKGFYPSDIAVEWESNGQPENNYKTTPPVLDSDGSFFLYSRLTVDKSRWQEGNVFSCSVMHEALHNHYTQKSLSLSPGKGGGGSGGGGSIPPHVQKSVNNDMIVTDNNGAVKFPQLCKFCDVRFSTCDNQKSCMSNCSITSICEKPQEVCVAVWRKNDENITLETVCHDPKLPYHDFILEDAASPKCIMKEKKKPGETFFMCSCSSDECNDNIIFSEEYNTSNPD light: not shown | –
9 | – | 0.147 nM | 0.0151 nM | Anti-PD1 (nVL1-nVH7).IgG4-TGFbRII (antibody) heavy: QVQLVESGGGVVQPGRSLRLDCKASGFTFSNSGMHWVRQAPGKGLEWVAVIWYDGSKRYYADSVKGRFTISRDNSKNTLFLQMNSLRAEDTAVYYCATNNDYWGQGTLVTVSSASTKGPSVFPLAPCSRSTSESTAALGCLVKDYFPEPVTVSWNSGALTSGVHTFPAVLQSSGLYSLSSVVTVPSSSLGTKTYTCNVDHKPSNTKVDKRVESKYGPPCPSCPAPEFLGGPSVFLFPPKPKDTLMISRTPEVTCVVVDVSQEDPEVQFNWYVDGVEVHNAKTKPREEQFNSTYRVVSVLTVLHQDWLNGKEYKCKVSNKGLPSSIEKTISKAKGQPREPQVYTLPPSQEEMTKNQVSLTCLVKGFYPSDIAVEWESNGQPENNYKTTPPVLDSDGSFFLYSRLTVDKSRWQEGNVFSCSVMHEALHNHYTQKSLSLSPGKGGGGSGGGGSIPPHVQKSVNNDMIVTDNNGAVKFPQLCKFCDVRFSTCDNQKSCMSNCSITSICEKPQEVCVAVWRKNDENITLETVCHDPKLPYHDFILEDAASPKCIMKEKKKPGETFFMCSCSSDECNDNIIFSEEYNTSNPD light: not shown | –
10 | – | 0.321 nM | 0.0545 nM | Anti-PD1 (nVL1-nVH8).IgG4-TGFbRII (antibody) heavy: EVQLVQSGGGVVQPGRSLRLSCAASGFTFSSYGMHWVRQAPGKGLEWVAVIWYDGSNKYYADSVKGRFTISRDNSKNTLYLQMNSLRAEDTAVYYCATNNDYWGQGTLVTVSSASTKGPSVFPLAPCSRSTSESTAALGCLVKDYFPEPVTVSWNSGALTSGVHTFPAVLQSSGLYSLSSVVTVPSSSLGTKTYTCNVDHKPSNTKVDKRVESKYGPPCPSCPAPEFLGGPSVFLFPPKPKDTLMISRTPEVTCVVVDVSQEDPEVQFNWYVDGVEVHNAKTKPREEQFNSTYRVVSVLTVLHQDWLNGKEYKCKVSNKGLPSSIEKTISKAKGQPREPQVYTLPPSQEEMTKNQVSLTCLVKGFYPSDIAVEWESNGQPENNYKTTPPVLDSDGSFFLYSRLTVDKSRWQEGNVFSCSVMHEALHNHYTQKSLSLSPGKGGGGSGGGGSIPPHVQKSVNNDMIVTDNNGAVKFPQLCKFCDVRFSTCDNQKSCMSNCSITSICEKPQEVCVAVWRKNDENITLETVCHDPKLPYHDFILEDAASPKCIMKEKKKPGETFFMCSCSSDECNDNIIFSEEYNTSNPD light: not shown | –
